Source: patent US20070185028A1, “Compositions and methods for treatment of protein misfolding and protein aggregation diseases” (priority 2004, published 2007)

Columns and labels:
Aβ = Aβ (Homo sapiens, UniProt P05067); experiment: Aβ Thioflavin T fluorescence (fibrillization, 50° C., 72 hours); format: biochemical; conditions: 1:10 Aβ:peptide; for effect on the fibrillization of Aβ (ranking): 72 hrs; for Δfluorescence (Aβ): Thioflavin T, 50° C., 72 hours
Experimental: Aβ Thioflaviin T fluorescence. Aβ fibrils were grown in the presence and absence of αB crystallin and peptides in conditions similar to that previously described for the presence of αB crystallin. Bakthisaran et al., Biochem J, 2005. Peptides were dissolved to 9.1 mM in trifluorethanol (TFE) and diluted to 0.91 mM stock solutions in 50 mM PBS, 100 mM NaCl, pH 7.4. 3.5 mg of Thioflavin T was dissolved in 100 μl of 50 mM Glycine pH 8.5. A stock solution of 1 mg/ml (0.22 mM) Aβ was prepared. 20 μl Aβ, 50 μl chaperone, 2 μl Thioflavin T was mixed with 28 μl 50 mM PBS, 100 mM NaCl, pH 7.4. Fluorescence was read using a Beckman Coultier DTX 880 multimode detector. Samples were heated at 50° C. for 72 hours and fluorescence was read again.
The fibrillization of Aβ was measured as fluorescence of the fluorescent dye Thioflavin T from solutions containing 1:10 monomeric molar ratio of Aβ:peptide. In the absence of Aβ fibrils, Thioflavin T had little or no fluorescence. The fluorescence of the Thioflavin T bound to Aβ fibrils in the absence of any other molecule after 72 hrs was set to 100%. […] Fibril formation=ΔfluorescenceAβ (with chaperone)*100/ΔfluorescenceAβ (without chaperone).

human γD crystallin = target: T1, human γD crystallin (Homo sapiens, UniProt P07320); experiment: αB crystallin protein pin array with γD crystallin; format: binding; conditions: unheated γD crystallin; similar maxima pre-heated 45° C.
T1 construct: made in house
T1 sequence (P07320 1-174): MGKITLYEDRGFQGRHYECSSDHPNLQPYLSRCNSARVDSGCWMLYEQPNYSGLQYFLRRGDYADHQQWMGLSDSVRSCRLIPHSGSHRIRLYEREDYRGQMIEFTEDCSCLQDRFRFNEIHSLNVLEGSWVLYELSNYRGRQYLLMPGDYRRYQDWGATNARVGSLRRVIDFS
From the text: (§1) Synthesis of Pins, binding and detection of peptides binding to ligand proteins. The αB crystallin protein pin array was used to measure the interaction between peptides and chaperone target proteins including bovine βH crystallin, human γD crystallin, equine alcohol dehydrogenase (ADH) and porcine citrate synthase (CS) as described (FIG. 12). Ghosh and Clark, Protein Sci 14: 684-95, 2005.
(§2) Refer to the methods section for detailed protocols. The absorbance corresponding to the blue coloration in each well was measured at λ=450 nm and plotted against the amino acid sequence of the corresponding peptide in that well (FIGS. 13 and 14). Wells containing peptides that have strong interactions with target proteins are dark blue and wells containing peptides that have weak or no interaction with target proteins are light blue or clear.
(§3) The purity of the target proteins used in the pin array assays, bovine βH crystallin, human γD crystallin, equine alcohol dehydrogenase (ADH) and porcine citrate synthase (CS) were determined to be >90% by SDS-PAGE. In addition, primary antibodies for each target protein were specific to that target protein and consequently contaminating proteins that may bind to the peptides will not be detected. Eighty-four sequential and overlapping peptide fragments corresponding to residues 1-175 of human αB crystallin were synthesized employing a simultaneous peptide synthesis strategy developed by Geysen, called Multipin Peptide Synthesis (Mimotopes, San Diego, Calif.). Geysen, Southeast Asian J Trop Med Public Health 21: 523-33, 1990; Chin et al., J Org Chem 62: 538-539, 1997. Peptides were immobilized on derivatized polyethylene pins arranged in a microtiter ELISA plate format. Each peptide was eight amino acids in length and consecutive peptides were offset by two amino acids. All peptides were bound covalently to the surface of the plastic pins. The first peptide was 1MDIAIHHP8 and the last peptide was 168PAVTAAPK175 for human αB crystallin.
(§4) Ghosh and Clark, Protein Sci 14: 684-95, 2005. […] The intensity of the blue color in the wells was measured at 450 nm using an ELISA plate-reader (BioTek, Winooski, Vt.). The intensity of the blue color (plotted on the X-axis) was a measure of the interaction between αB crystallin peptides (plotted on the Y-axis) and target proteins. To measure the effect of temperature on the interactions between interactive peptides and the target proteins, the target proteins were heated in a water-bath at 45° C. for fifteen minutes prior to use. Pin arrays are unable to differentiate between monomers, dimers or oligomers of target proteins that exist in solution. Instead, pin arrays are very sensitive detectors of interactions between individual peptides and the entire population (monomers, dimers or oligomers) of specific target proteins that may exist in solution under specific conditions. Each target protein was assayed two to five times. A single pin array was used for all experiments and no change in interactions was observed after more than thirty repetitions. The last three peptides of the protein pin array, 163REEKPAVT170, 165EKPAVTAA172, 167PAVTAAPK174, correspond to the epitope (163REEKPAVTAAPKK175) recognized by the primary antibody for human αB crystallin. A positive reaction is observed for these three peptides in the absence of human αB crystallin as the ligand due to direct binding of the anti-human αB crystallin antibody to these three peptides. The loss of efficiency for the pin array was measured using this assay. The loss of efficiency for the pin array was determined to be <5% by after more than 30 assays.
When βH crystallin was replaced with γD crystallin, a native protein constituent of lens cytoplasm from the same gene family as the β crystallins, as the ligand in the pin array, twelve interactive sequences were identified (FIG. 14: striped bars). […]

[1] = target: T2, porcine citrate synthase (CS) (Sus scrofa, UniProt P00889); experiment: αB crystallin protein pin array with citrate synthase; format: binding; conditions: CS as target protein in the pin array
T2 construct: purchased Roche Diagnostics, IN 103 381
T2 sequence (P00889 28-464): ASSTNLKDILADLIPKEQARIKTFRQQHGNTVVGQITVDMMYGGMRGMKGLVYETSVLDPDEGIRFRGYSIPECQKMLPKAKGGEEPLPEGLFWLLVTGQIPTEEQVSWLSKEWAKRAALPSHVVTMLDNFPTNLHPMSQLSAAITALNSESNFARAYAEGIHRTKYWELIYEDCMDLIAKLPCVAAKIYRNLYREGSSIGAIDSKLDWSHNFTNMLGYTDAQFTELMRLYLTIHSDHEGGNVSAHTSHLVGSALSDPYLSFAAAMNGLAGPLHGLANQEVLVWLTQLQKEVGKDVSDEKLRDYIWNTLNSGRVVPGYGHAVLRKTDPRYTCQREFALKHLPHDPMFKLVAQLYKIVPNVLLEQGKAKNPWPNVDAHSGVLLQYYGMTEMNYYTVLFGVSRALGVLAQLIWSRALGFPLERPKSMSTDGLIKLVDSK
From the text: as §1, §2, §3, §4
The pattern of absorbance at λ=450 nm when αB crystallin peptides were assayed with unheated and pre-heated CS was similar to the absorbance pattern obtained with unheated and pre-heated βH/γD crystallin and ADH (FIG. 18). […]

**Q.** For DRFSVNLDVKHFS, which “effect on the fibrillization of Aβ (ranking)” value (Aβ) is on record?
**A.** strongest effect

**Q.** And the “Δfluorescence (Aβ)” value (Aβ)?
**A.** 264,396,672

**Q.** ERTIPITRE was tested. Which “Δfluorescence (Aβ)” value (Aβ) did it give?
**A.** 576,742,720

**Q.** Which results are given for FSVNLDVK [Peptide 38]?
**A.** absorbance at 450 nm, interaction with γD crystallin (human γD crystallin): maximum absorbances; absorbance at 450 nm, interaction with CS [1]: absorbance maxima

**Q.** Which “effect on the fibrillization of Aβ (ranking)” value (Aβ) does the source give for HGKHEERQDE here?
**A.** weakest effect

**Q.** What about the “Δfluorescence (Aβ)” value (Aβ) of the same sequence?
**A.** 796,478,624

**Q.** Which results are given for LTITSSLS [Peptide 66]?
**A.** absorbance at 450 nm, interaction with γD crystallin (human γD crystallin): maximum absorbances; absorbance at 450 nm, interaction with CS [1]: absorbance maxima

**Q.** For LTITSSLSSDGV, which “Δfluorescence (Aβ)” value (Aβ) is on record?
**A.** 352,301,312

**Q.** STSLSPFYLRPPSFLRAP was tested. Which “Δfluorescence (Aβ)” value (Aβ) did it give?
**A.** 478,389,568

**Q.** Which results are given for WIRRPFFP [Peptide 5]?
**A.** absorbance at 450 nm, interaction with γD crystallin (human γD crystallin): maximum absorbances; absorbance at 450 nm, interaction with CS [1]: absorbance maxima
